Measurements as given in patent US20240400654A1.
Positions count from the first letter of the chain named. Numbers in names are those of the source. Where “and” joins values, the source holds several entries; their conditions need not be identical. Identical values can stand only once.

Biological target: HRgpA-6H (Porphyromonas gingivalis) (UniProt P28784)
Test: ELISA, coated HRgpA-6H

UniProt P28784, sequence (P28784 228-860 limits assumed): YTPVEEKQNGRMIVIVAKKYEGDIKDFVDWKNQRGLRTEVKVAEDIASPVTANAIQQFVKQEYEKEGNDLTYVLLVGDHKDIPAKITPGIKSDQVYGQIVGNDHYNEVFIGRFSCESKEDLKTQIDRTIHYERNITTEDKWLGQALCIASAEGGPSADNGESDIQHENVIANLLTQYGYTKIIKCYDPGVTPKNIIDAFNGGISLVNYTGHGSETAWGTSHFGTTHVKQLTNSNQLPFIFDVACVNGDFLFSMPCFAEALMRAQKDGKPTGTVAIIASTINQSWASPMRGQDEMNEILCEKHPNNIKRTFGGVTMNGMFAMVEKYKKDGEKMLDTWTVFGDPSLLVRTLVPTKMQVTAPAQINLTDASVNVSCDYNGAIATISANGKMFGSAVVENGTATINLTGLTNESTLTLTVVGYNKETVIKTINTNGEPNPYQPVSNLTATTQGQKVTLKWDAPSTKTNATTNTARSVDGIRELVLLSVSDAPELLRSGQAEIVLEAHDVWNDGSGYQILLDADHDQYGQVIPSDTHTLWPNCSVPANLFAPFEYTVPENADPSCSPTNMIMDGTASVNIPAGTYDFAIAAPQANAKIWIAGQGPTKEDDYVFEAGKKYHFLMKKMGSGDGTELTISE

B1: KB001 mouse Fab VH Y106I (Fab, V domains shown)
VH: EVQLKQSGPGLVAPSQSLSITCTVSGFSLSIYSVHWVRQPPGKGLEWLGMIWGGGSSDYNSALKSRLSISKDNSKSQVFLKMNSLQTDDTAMYYCARNGNFYAMDIWGQGTSVTVSS
VL: QIVLTQSPAIMSASLGERVTMTCTASSSVSSSFLHWYQQKPGSSPQLWIYSTSNLASGVPARFSGSGSGTSYSLTISSMEAEDAATYYCHQYHHSPYIYTFGGGTKLEIK
  OD450 nm: 0.803
  Ratio OD(Variant)/OD(WT): 1.04

B2: KB001 mouse Fab VH Y106N (Fab, V domains shown)
VH: B1 VH with I106N
VL: B1 VL
  OD450 nm: 0.792
  Ratio OD(Variant)/OD(WT): 1.03

B3: KB001 mouse Fab VH S30T (Fab, V domains shown)
VH: B1 VH with S30T, I106Y
VL: B1 VL
  OD450 nm: 0.457
  Ratio OD(Variant)/OD(WT): 0.906

B4: KB001 mouse Fab VH S28A (Fab, V domains shown)
VH: B1 VH with S28A, I106Y
VL: B1 VL
  OD450 nm: 0.488
  Ratio OD(Variant)/OD(WT): 0.904

B5: KB001 mouse Fab VH S30L (Fab, V domains shown)
VH: B1 VH with S30L, I106Y
VL: B1 VL
  OD450 nm: 0.468
  Ratio OD(Variant)/OD(WT): 0.928

B6: KB001 mouse Fab VH I31W (Fab, V domains shown)
VH: B1 VH with I31W, I106Y
VL: B1 VL
  OD450 nm: 0.459
  Ratio OD(Variant)/OD(WT): 0.91

B7: KB001 mouse Fab VH L29T (Fab, V domains shown)
VH: B1 VH with L29T, I106Y
VL: B1 VL
  OD450 nm: 0.502 and 0.512 and 0.501
  Ratio OD(Variant)/OD(WT): 0.93 and 0.948 and 0.928

B8: KB001 mouse Fab VH I31N (Fab, V domains shown)
VH: B1 VH with I31N, I106Y
VL: B1 VL
  OD450 nm: 0.429
  Ratio OD(Variant)/OD(WT): 0.85

B9: KB001 mouse Fab VH S28N (Fab, V domains shown)
VH: B1 VH with S28N, I106Y
VL: B1 VL
  OD450 nm: 0.53
  Ratio OD(Variant)/OD(WT): 0.981

B10: KB001 mouse Fab VH Y32S (Fab, V domains shown)
VH: B1 VH with Y32S, I106Y
VL: B1 VL
  OD450 nm: 0.717 and 0.783 and 0.718
  Ratio OD(Variant)/OD(WT): 0.847 and 0.925 and 0.848

B11: KB001 mouse Fab VH S30Q (Fab, V domains shown)
VH: B1 VH with S30Q, I106Y
VL: B1 VL
  OD450 nm: 0.47 and 0.483
  Ratio OD(Variant)/OD(WT): 0.932 and 0.957

B12: KB001 mouse Fab VH S30H (Fab, V domains shown)
VH: B1 VH with S30H, I106Y
VL: B1 VL
  OD450 nm: 0.482
  Ratio OD(Variant)/OD(WT): 0.955

B13: KB001 mouse Fab VH S28H (Fab, V domains shown)
VH: B1 VH with S28H, I106Y
VL: B1 VL
  OD450 nm: 0.511 and 0.526
  Ratio OD(Variant)/OD(WT): 0.946 and 0.974

B14: KB001 mouse Fab VH Y32F (Fab, V domains shown)
VH: B1 VH with Y32F, I106Y
VL: B1 VL
  OD450 nm: 0.814 and 0.807
  Ratio OD(Variant)/OD(WT): 0.962 and 0.953

B15: KB001 mouse Fab VH V34M (Fab, V domains shown)
VH: B1 VH with V34M, I106Y
VL: B1 VL
  OD450 nm: 0.793 and 0.791
  Ratio OD(Variant)/OD(WT): 0.962 and 0.959

B16: KB001 mouse Fab VH Y32N (Fab, V domains shown)
VH: B1 VH with Y32N, I106Y
VL: B1 VL
  OD450 nm: 0.826 and 0.775
  Ratio OD(Variant)/OD(WT): 0.976 and 0.916

B17: KB001 mouse Fab VH G26N (Fab, V domains shown)
VH: B1 VH with G26N, I106Y
VL: B1 VL
  OD450 nm: 0.445
  Ratio OD(Variant)/OD(WT): 0.876

B18: KB001 mouse Fab VH I31E (Fab, V domains shown)
VH: B1 VH with I31E, I106Y
VL: B1 VL
  OD450 nm: 0.42 and 0.458 and 0.428
  Ratio OD(Variant)/OD(WT): 0.833 and 0.908 and 0.848

B19: KB001 mouse Fab VH Y106Q (Fab, V domains shown)
VH: B1 VH with I106Q
VL: B1 VL
  OD450 nm: 0.792
  Ratio OD(Variant)/OD(WT): 1.03

B20: KB001 mouse Fab VH S30R (Fab, V domains shown)
VH: B1 VH with S30R, I106Y
VL: B1 VL
  OD450 nm: 0.481
  Ratio OD(Variant)/OD(WT): 0.953

B21: KB001 mouse Fab VH I31L (Fab, V domains shown)
VH: B1 VH with I31L, I106Y
VL: B1 VL
  OD450 nm: 0.442 and 0.431
  Ratio OD(Variant)/OD(WT): 0.876 and 0.854

B22: KB001 mouse Fab VH Y106W (Fab, V domains shown)
VH: B1 VH with I106W
VL: B1 VL
  OD450 nm: 0.791 and 0.809 and 0.82
  Ratio OD(Variant)/OD(WT): 1.03 and 1.05 and 1.07

B23: KB001 mouse Fab VH S30K (Fab, V domains shown)
VH: B1 VH with S30K, I106Y
VL: B1 VL
  OD450 nm: 0.46 and 0.467 and 0.493
  Ratio OD(Variant)/OD(WT): 0.912 and 0.926 and 0.977

B24: KB001 mouse Fab VH H35V (Fab, V domains shown)
VH: B1 VH with H35V, I106Y
VL: B1 VL
  OD450 nm: 0.706
  Ratio OD(Variant)/OD(WT): 0.856

B25: KB001 mouse Fab VH S28Y (Fab, V domains shown)
VH: B1 VH with S28Y, I106Y
VL: B1 VL
  OD450 nm: 0.437
  Ratio OD(Variant)/OD(WT): 0.809

B26: KB001 mouse Fab VH S30W (Fab, V domains shown)
VH: B1 VH with S30W, I106Y
VL: B1 VL
  OD450 nm: 0.469
  Ratio OD(Variant)/OD(WT): 0.93

B27: KB001 mouse Fab VH Y32W (Fab, V domains shown)
VH: B1 VH with Y32W, I106Y
VL: B1 VL
  OD450 nm: 0.731 and 0.718 and 0.747
  Ratio OD(Variant)/OD(WT): 0.864 and 0.848 and 0.882

B28: KB001 mouse Fab VH G26D (Fab, V domains shown)
VH: B1 VH with G26D, I106Y
VL: B1 VL
  OD450 nm: 0.47 and 0.481
  Ratio OD(Variant)/OD(WT): 0.925 and 0.947

B29: KB001 mouse Fab VH Y106M (Fab, V domains shown)
VH: B1 VH with I106M
VL: B1 VL
  OD450 nm: 0.794 and 0.84
  Ratio OD(Variant)/OD(WT): 1.03 and 1.09

B30: KB001 mouse Fab VH I31Q (Fab, V domains shown)
VH: B1 VH with I31Q, I106Y
VL: B1 VL
  OD450 nm: 0.44 and 0.439
  Ratio OD(Variant)/OD(WT): 0.872 and 0.87

B31: KB001 mouse Fab VH Y106F (Fab, V domains shown)
VH: B1 VH with I106F
VL: B1 VL
  OD450 nm: 0.815 and 0.856
  Ratio OD(Variant)/OD(WT): 1.06 and 1.11

B32: KB001 mouse Fab VH L29V (Fab, V domains shown)
VH: B1 VH with L29V, I106Y
VL: B1 VL
  OD450 nm: 0.446
  Ratio OD(Variant)/OD(WT): 0.826

B33: KB001 mouse Fab VH Y106K (Fab, V domains shown)
VH: B1 VH with I106K
VL: B1 VL
  OD450 nm: 0.807
  Ratio OD(Variant)/OD(WT): 1.05

B34: KB001 mouse Fab VH S28R (Fab, V domains shown)
VH: B1 VH with S28R, I106Y
VL: B1 VL
  OD450 nm: 0.458
  Ratio OD(Variant)/OD(WT): 0.848

B35: KB001 mouse Fab VH S28L (Fab, V domains shown)
VH: B1 VH with S28L, I106Y
VL: B1 VL
  OD450 nm: 0.435 and 0.468
  Ratio OD(Variant)/OD(WT): 0.806 and 0.867

B36: KB001 mouse Fab VH I31F (Fab, V domains shown)
VH: B1 VH with I31F, I106Y
VL: B1 VL
  OD450 nm: 0.45
  Ratio OD(Variant)/OD(WT): 0.892

B37: KB001 mouse Fab VH S30F (Fab, V domains shown)
VH: B1 VH with S30F, I106Y
VL: B1 VL
  OD450 nm: 0.438
  Ratio OD(Variant)/OD(WT): 0.868

B38: KB001 mouse Fab VH L29P (Fab, V domains shown)
VH: B1 VH with L29P, I106Y
VL: B1 VL
  OD450 nm: 0.468
  Ratio OD(Variant)/OD(WT): 0.867

B39: KB001 mouse Fab VH S30M (Fab, V domains shown)
VH: B1 VH with S30M, I106Y
VL: B1 VL
  OD450 nm: 0.437
  Ratio OD(Variant)/OD(WT): 0.866

B40: KB001 mouse Fab VH I31P (Fab, V domains shown)
VH: B1 VH with I31P, I106Y
VL: B1 VL
  OD450 nm: 0.471 and 0.428
  Ratio OD(Variant)/OD(WT): 0.934 and 0.848

B41: KB001 mouse Fab VH S28G (Fab, V domains shown)
VH: B1 VH with S28G, I106Y
VL: B1 VL
  OD450 nm: 0.468 and 0.486
  Ratio OD(Variant)/OD(WT): 0.867 and 0.9

B42: KB001 mouse Fab VH Y106S (Fab, V domains shown)
VH: B1 VH with I106S
VL: B1 VL
  OD450 nm: 0.852 and 0.849
  Ratio OD(Variant)/OD(WT): 1.11 and 1.1
